Experimental data published in publication PMC5389901.

Target: INSM1 ZF4-5 (Homo sapiens, UniProt Q01101 424-497)
Experiment: ITC

Chain of INSM1 ZF4-5 (Q01101 424-497): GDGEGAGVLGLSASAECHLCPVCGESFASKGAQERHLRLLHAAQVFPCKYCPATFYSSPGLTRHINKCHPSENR

B1: INSM1 consensus dsDNA (dsDNA)
DNA 1: TGTCAGGGGGCA
DNA 2: TGCCCCCTGACA
Kd: 21.8 µM
